Test: protease stability score; higher = more stable; yeast display proteolysis, trypsin and chymotrypsin;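 also: log10 excess protease needed over predicted unfolded state with 0 meaning unfolded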

Going from “DDQLFRVLQELWKALQEGDHKHAIDQAPEDARFHVGEKNYHGMEDAAKHLAEFYKQIRVRIEIKRYEINGDSLNVHVVVQMNNNGKPERRRNVILAKLHNGRMLEMQVHDRE” to “DDQLRKKVKTFIRVIQSGNTQEAKKLMDPNARYHVGDKTVDGMDQWATIMTKLKDEMRIQLNVTSVTATNGHIHVRVEVNVDVNGRPINVTVNVYFHIENGRIQRVHYQMDPDEFKHIQR”, the protease stability score falls from 0.064 to -0.135.

First: DDQLSDQLDKARKQIEEGNFEQVREYVDPNVSVHVGDKSVHGREKYTHEILRKHQELRYKVEVTRVHVENGRLDVKAQETVNHNGRPESSRYVLDLNMHNGRLKHMTKSSDK
Second: DDQNLRSAVRRLVDGNEERAKDTLDENARVEVGEYNFHGREEAQKAFQTMQDRIDHINVKSYKYQGDKASVDMVVEFNGRSVKFVVVVRVHNGHLVNARVQFTDEHQHKRAKEMID
The protease stability score of the first is lower: -0.321 for the first, -0.104 for the second.

Going from “DDQQARDIAKELVKALQTGDPERFVELADPNARVEIGDKTYHGHDRMSEMIKTWHRDVDHIRIQDYRAKGDKIEIQFVLDINGKQNRLVMVVQVSNGRITVVFVRSG” to “DDQQKAKTHVRQVRDAATSNDPDEMRRLADENARFVVGDKEYEGRDQVRELVERERDNVDQVEIRLTDVEKRGDRLRLEVRVVWNHNGSHDHKILDMIVQNHNGTLRFVQLQQR”, the protease stability score falls from 1.35 to 0.366.

Compared with “DDQRLRELNDTIAENIQSGDESKLSQLADPNVRLQIGDKEWHGREEMQKAWDELRRSADHIEIRSITAKGDHAVINAVLHHNGRTSQVRFDFSFHNGRIVRVSMHET”, “DDQVAKMVRKLLRLEESGNEEELRKLADEEAEFVVGDKRYRGMTEYVQSVYHKKKEIRFKIITYSAEDDGDKIVVIIKMTNNHNGQPDTFRVKVVFVANNGNLKHANFRKRK” is lower in protease stability score: 1.48 for the first, 0.39 for the second.

Compared with “DDRDAERLVELWKTGDPDKFANHMRDDVRVQIGDKSVRGRDEAHKILERLRQQIDHWEIKDYEVHGERVIIHAVATVNGRHLNFVIVVQMHNGRIQSVQYKVTSEDDQHRIKKLLD”, “DDRDAKHFKEIMKHGNFEEMVRQADPNVTITIGDREVHGRHQAQKFVDTLNDRIDHYQVDEIDVKGEKITAEVAMVVNGVRVDFVIVMHFENGRIKSVRIEATNEHAHENFRRIHS” is higher in protease stability score: 0.326 for the first, 0.561 for the second.

First: DDRDEAHKLHEDYDRVMQTGDDDRVREMVDPNAKLRIGDQDLRGREELAELMKRQRDRADHVRIELRSVKVDGNKITMKLNFHLDHNGRTENTDATYHYEKDNGQWELKHAKVS
Second: DDRDEEKLQEQRKIHENNDEDRRKELVDPNVKFDVGDRHYHGRETNSKKFVDENREMRVEVDIKRVTNDEDHLRFEAHVVIRNNGQPDTKKVRLEQRLDGDKLKMERQEDKR
The protease stability score of the first is lower: -0.052 for the first, 0.276 for the second.

Going from “DDRDIERAKEMFKAIKTGDPDRLSELVDENARVKIGDKEWHGNTEWVEDLERKKKEMSVDLQIHKIEDRNGVAQIHMTRRMDHNGKPRSDKYVLFIRARNGRIVDVRAEERS” to “DDRDIERMAKDYVRAIRTGDEEQIRRLMDKDVKYEIGDKTIHGRENWAKWVKNFRRHADHVRLKDMRVHGNKIDLNMEFQVNGEKKRQKYDIQVHNGRIKTVRIEDS”, the protease stability score rises from 0.097 to 1.47.

Going from “DDRDIKQAADRFLEDIKTNNPENVRKLVDENARVQIGDKQYRGKERIQEAMEEWIKRVDHWRIEDIKIHGDQVHVKMRINVNGRNLTFIMVVSIKNGTLKTLTMNVTDTEKLREMLR” to “DDRDKVKSLWKQMLTILRTGDHKRWNKLVDKDVKYNIGDKSIHGKEEAEKLVKKIKDKVDTVSQTIVDVQNHNGRIHLRLRMVNNFNGNHNTYEVNAQFEKKNGRVKMQNQTDN”, the protease stability score falls from 1.27 to 0.149.

Going from “DDRDLEQLLRELVTIWKNGNFEDLSRQADPNVKFRVGDKTYHGREQASKLWKKLSDQADHWSVDSVQAKGDTLRLDFRATVNGHEVRMVYHARIQNGSITSWEIQYTSEELHTRVER” to “DDRDLETMVRLWRDNDSKRLKQNVDPNARIRYGNFEVHGREQVQKWIKLFRDRVDHNDIKRYQTTPGRLVMQLSATFNGVKVKFTMIVEFHNGNIRLIQINFTDEENMKHLVREVE”, the protease stability score rises from 1.09 to 1.55.

First: DDRDLKRMADVLKTGDPDKLNENADKDAQVHVGNKRVHGREQFHEYQRRLREQIDHLHVKHIEITENKARIDYEFHVNGQKFSFTLTFQAHDGKLKRMSATFTSEEEEKRWDEIVD
Second: DDRDRKKQMSKLIEIFKEGDPRKWMELLDENARIQIGDTRIRGREHASDWLKKLRDHVDSISIHDMEVDGNHIRVVIEVVIDGRSAVYKFVVHLKNGKVKHVDVSATSKEHENNMSR
The protease stability score of the first is lower: 0.302 for the first, 1.5 for the second.

First: DDREEARKMLHKADRALNDGDPRSAQNLVDENAQVVYGDKRYSGDQQAADVMVSLRHQYDHLSLEIDRLRVDGNRVHVDATLTAQRNGSTLHSKLNFVFSKKNGRLRVSHLVIG
Second: DDREIKELLQLMLDAIRDGNEQSASKMADENARVKVGDKKVHGREQIQELVKELKKNVDHFTVNDIKQQGDKASADAEMDVNGVTVHMEVRVQVHNGHVKHAEMTYRDEDQKRQFHQ
The protease stability score of the first is higher: 0.183 for the first, -0.433 for the second.

Compared with “DDRELDHAKKVAERNDPDKLRKLADPNAHLTVGDKKIHGMHNAAQKVVSMWEQADHVDIKHVDQHNGRVRVEFRFVVNGREMEMVMRFEVKNGHIKRLQLEFTSEELQKKFDKLAD”, “DDRELEDVQRVVETGDPDKLNDLADKDARMQVGDHKVRGSDQVRSLMDKLKKRIDHYDVKSITIRNGRLDATVVFVINGEEIEVRIVLRVHNGRLKEMSIHATSERVQTILKKAMS” is higher in protease stability score: 0.57 for the first, 0.803 for the second.

Compared with “DDREMKKFAEQYARNLTRNDEDSLKDLFDENAEVTIGDKQVRGQEKIKSLLHQLHQQVDHFDLRRVDAQGDDIKIVVLWNHNGKHLNVTISMRVHNGRIKSATDHVRSEDDERKFKR”, “DDREQAQKFMDLFEDAIKDGDPRQAEELAPPDAKARYGDKKLTGMHDIARHFIDEVKRVDHHRVTYKDIKNEGNKFVFTFVYTFKHNGQSDDKQVRVEAENHNGRLLVTSIHDT” is higher in protease stability score: 0.569 for the first, 0.724 for the second.

Going from “DDRERAERYLRQVENALHTNDPRQLKNQADKDVKIEIGETDLHGTKDFVKMMKEIINRADHARFTVRSVRRHGDKMRVEFTAEVNHNGRRRTHTIRITLQLENGDVVLQSLRVE” to “DDREVDKVEELLKTGDFLKMANRADKNARMQIGDKEYRGREHVQDAAKRLDRQVDTEKVTDLRTDGEKVLVHYIQHFDGQNLEVDVEFHFHNGRLQEVVFHVRDPKKQKEFDKRVG”, the protease stability score falls from 0.302 to -0.235.

Compared with “DDREVVDRALKELRSILHEGDEEQMHRNFPPEASVKYGDTEYTGMESAAHLIIELRKRVDHMEQRVTTVNVRNGTVDVDMSADVRHNGREDSIKVKLILRISNGRAQLEQVINP”, “DDRHEMKTALKQLIDAIRQGNPDTIMSLLDPNVTFTYGDQNIRGREHVNTELVHRRNRVDNVHVNLQDIDQDGEKLHARFQMVLRRNGRNDTRDMVLVAQVHNGKARIRRLHHG” is lower in protease stability score: 1.18 for the first, 0.557 for the second.

Going from “DDRHLHHRAREWAEQLKTNDEDELTKYVDPNARMRVGDKSVHGREKLQEQIHRDNERVDNVEIRSIRIENGTVNIRQVNDVNGRNDDFRVRMHIHNGQLKVNERHSP” to “DDRHLQQLASIAAKALRTGNPKDMKKLVDPNAKMHYGDKEVHGREQMADVLRRIRRDADHIDLRSYSADNGRISIDMDLRVNGKKVRIIVKAEVHNGKVTHVTVDTK”, the protease stability score rises from -0.38 to 0.766.

First: DDRHVQKRLKTFIHILRTGDPQKISNLVDPNAEIQVGDKEYHGRHEIRKLIEELKTRVDHIDVVDMKAEGDKARANLNVNVNGHDIRFVVQLVWDNGHVKSVRIKYRNERVERQEKG
Second: DDRIKELADRFMNALQTNDPDKINNLVDPNAKITVGDKSVRGDEQINRTMDQRKRELRQDYDVRSVEVHGNTAIIDVHVTFEHNGEPHKEKQTIIIHVKNGRAVDIKITRHS
The protease stability score of the first is higher: 1.61 for the first, -0.326 for the second.

Compared with “DDRIRQVVEEWWKAVETNDPDKAKENVDKDVRVEVGDKQFRGSETLEKRIRDEKDHARVVVRMQSVSVHGDTVDVTYNVVVEVNGNPLRFKAQAFFRARNGRMQSIQFSFSKEDKKRVDG”, “DDRLNEMARRFITLLTTGDPKEAHKYMDENARFQIGDERYHGMHEFERLLTERQKTSRVQINSLEVQHEPNRANIHADVENERNGQPRRFDVIIELHAHNGRIKEITYEYRQ” is lower in protease stability score: 0.916 for the first, -0.009 for the second.

Going from “DDRLREVFEHIVELFKTGNPEELSRNVDPNARYQYGDKELHGRDHYRREVKDLIDTMRYEQEVDKVQKRGEKVRIEAEARHKENGRPNEFTFVIEFKAHNGKVKHEVQHESS” to “DDRNKHIFKKIIEAERTGDEDKLRQNFDPNARFRIGNQTYHGREHWADRVSDLRKKIRVEIKIKRVQVDGDKVVVKYQVVYNVNGRPKKDTFRVVLHFQNGKAKHRTFQIDEERKEHLDS”, the protease stability score rises from -0.15 to 0.252.

Going from “DDRNNHRAKTFLTALNHNDPDQMERMVDENAQVQVGDKSYRGREDMKRWLKELIDSIRLEVHVHSLTQHNGVAVADIEETRESNGDPEEDSFTLYIQVHNGQAKRLEESKKS” to “DDRNQAEKQVDEMRKIAKTGDEDRMADLFIDNPRFNVGDETYHGREQVVKYFRDTFRQVDHMHITLRRLSVHNGRVKAEFDVTLNRNGRETKDIFVVIQVKHNGTLRIESVHQK”, the protease stability score rises from 0.552 to 0.781.

Compared with “DDRQIEVLKDYIKAVQQNDPDRMRQNADPNATFNVGDKRYHGMTEYAEEVAKHLKEMRFEIRDIRLRDHNGKVHVEYEAEYEVNGQPFTQKVSFVAEVTNGHVKRVHYSTDEDLTRIEQK”, “DDRQMDHFAHQFERNNPDEYRKMLDPNARAEYGDKDYSGREQVQTLADTLHKQFDHLEVKDYRFNNGRAEFRYEAKFNGKTLTMKMVAEVKNGHIKHVVFRVTDPRQRKDLQREFG” is higher in protease stability score: -0.24 for the first, 0.156 for the second.

Going from “DDRQQRVMEKILTAVQKGDEKKVKDQMDPNVKVHVGEFHYQGEEQLEKTLRHRTKELEIEYREITFRVDNGNVHVDVKAQLNNNGKPQQFTQHFSAEVDGDRVKTVHVEVKQ” to “DDRQRRQFAERVQKVLRTGDPERFMQMADENVQVHVGDQTYRGRDQAEKNMREFVKRVDHLQIISFHFEGNHAVIVFIAHFDGKEATIEMVIRFSNGHIKEMKINPDQIRQMRS”, the protease stability score rises from -0.533 to 1.21.

Going from “DDRQVEELVRIMQRGNFKDLASNLDENVHVKVGNRTYHGREKAETVFNRLQQRIDHYEIIHVQERPNRAQVRFRFRVNGRTVEATVKAQAHNGRIKEMNLQARDEDAQREIDHAID” to “DDRQVERLAKEVVKNLETGNPNEFMKLMDPNAKFEVGDQDIHGREQWSEWVDHLSKHVDSLEVKSVTAHNGRVDIDMVFRVNGEKRVVKIVITVKNGHIKEMEIREQ”, the protease stability score falls from 1.24 to 1.2.

Compared with “DDRRLAQEMANQFRKIRETGNPDDIVQLADPNAKYRIGERDVHGKEEIKKDFQEEKDRVDRIEVEIDSIEVKNGEVRVTFILRRTHNGRRESRTLVMNARVDNGRLTMESATEK”, “DDRTKMQELLDKLREAAEDGDRRKVHQLFDENARFEIGDTEFHGMTSAAKRLAEEWKRHDHVQFSVREIRVEPGRFVVHMQERNSHNGKSDSKNVVMTVTKSNGQIRATKVKVR” is higher in protease stability score: -0.205 for the first, 0.387 for the second.

First: DDRTQKRLAEEVVRILNRGDEDQIRKMADKDVKARVGEQSVHGRETALRLLIEFNRRVDHVDIRHVHTEEGRVEVDLVAEVNGRRIRMHIVFILHNGKLHKVEMDPDELRKLEK
Second: DDRVADLLRKWWEAVRTGDPDRAANQVDPNAKVEYGDKQVHGREQIRTELDERKRNAKFEYKIKTYNKDEDHVKVEAEAVVVINGRPHKFTYQVHARADGDKIKHMRIELPEDVLHEMQG
The protease stability score of the first is higher: 0.868 for the first, 0.553 for the second.

From the NTF2 design screens of Basanta et al. (2020)
